Source: paper doi:10.1101/2024.05.23.595515v1

Assays:
Assay in all cases: purified protein
purified protein [1] = substrate: CN(C)c1ncnc2c1ncn2[C@@H]1O[C@H](COP(=O)(O)O)[C@@H](O)[C@H]1O; conditions: 37 °C, HEPES, NaCl, MgCl2, 2-mercaptoethanol
purified protein [2] = substrate: CNc1ncnc2c1ncn2[C@@H]1O[C@H](COP(=O)(O)O)[C@@H](O)[C@H]1O; conditions: 37 °C, HEPES, NaCl, MgCl2, 2-mercaptoethanol
purified protein [3] = substrate: CC(C)=CCNc1ncnc2c1ncn2[C@@H]1O[C@H](COP(=O)(O)O)[C@@H](O)[C@H]1O; conditions: 37 °C, HEPES, NaCl, MgCl2, 2-mercaptoethanol
purified protein [4] = substrate: CNc1ncnc2c1ncn2[C@@H]1O[C@H](CO)[C@@H](O)[C@H]1O; conditions: ATP 1 mM, 37 °C, HEPES, NaCl, MgCl2, CaCl2
purified protein [5] = substrate: CN(C)c1ncnc2c1ncn2[C@@H]1O[C@H](CO)[C@@H](O)[C@H]1O; conditions: ATP 1 mM, 37 °C, HEPES, NaCl, MgCl2, CaCl2
purified protein [6] = substrate: CC(C)=CCNc1ncnc2c1ncn2[C@@H]1O[C@H](CO)[C@@H](O)[C@H]1O; conditions: ATP 1 mM, 37 °C, HEPES, NaCl, MgCl2, CaCl2

B1: ADAL (hADAL, adenosine deaminase-like) (Homo sapiens) (protein)
chain: MIEAEEQQPCKTDFYSELPKVELHAHLNGSISSHTMKKLIAQKPDLKIHDQMTVIDKGKKRTLEECFQMFQTIHQLTSSPEDILMVTKDVIKEFADDGVKYLELRSTPRRENATGMTKKTYVESILEGIKQSKQENLDIDVRYLIAVDRRGGPLVAKETVKLAEEFFLSTEGTVLGLDLSGDPTVGQAKDFLEPLLEAKKAGLKLALHLSEIPNQKKETQILLDLLPDRIGHGTFLNSGEGGSLDLVDFVRQHRIPLELCLTSNVKSQTVPSYDQHHFGFWYSIAHPSVICTDDKGVFATHLSQEYQLAAETFNLTQSQVWDLSYESINYIFASDSTRSELRKKWNHLKPRVLHI
Km (purified protein [1]): 65 ± 1.7 µM
kcat (purified protein [1]): 2.6 ± 0.036 s⁻¹
Km (purified protein [2]): 47 ± 1.1 µM
kcat (purified protein [2]): 2.4 ± 0.068 s⁻¹
Km (purified protein [3]): 35 ± 1.4 µM
kcat (purified protein [3]): 1.9 ± 0.066 s⁻¹

B2: ADK (human adenosine kinase) (Homo sapiens) (protein)
chain: MTSVRENILFGMGNPLLDISAVVDKDFLDKYSLKPNDQILAEDKHKELFDELVKKFKVEYHAGGSTQNSIKVAQWMIQQPHKAATFFGCIGIDKFGEILKRKAAEAHVDAHYYEQNEQPTGTCAACITGDNRSLIANLAAANCYKKEKHLDLEKNWMLVEKARVCYIAGFFLTVSPESVLKVAHHASENNRIFTLNLSAPFISQFYKESLMKVMPYVDILFGNETEAATFAREQGFETKDIKEIAKKTQALPKMNSKRQRIVIFTQGRDDTIMATESEVTAFAVLDQDQKEIIDTNGAGDAFVGGFLSQLVSDKPLTECIRAGHYAASIIIRRTGCTFPEKPDFH
Km (purified protein [4]): 15 ± 1.8 µM
kcat (purified protein [4]): 0.28 ± 0.0063 s⁻¹
Km (purified protein [5]): 6.1 ± 0.31 µM
kcat (purified protein [5]): 0.27 ± 0.0024 s⁻¹
Km (purified protein [6]): 10 ± 1.0 µM
kcat (purified protein [6]): 0.18 ± 0.018 s⁻¹
